Measurements from FireProtDB (doi:10.1021/bi701365e).
Where “and” joins values, the source holds several entries; their conditions need not be identical. Equal values may be shown once.

Details: Helicobacter pylori (strain ATCC 700392 / 26695), pH 9, Thermal, EPPS 50 mM, reversible: Yes (>80%), whole UniProt chain shown

B1: Flavodoxin wild type, O25776 (protein)
chain: MGKIGIFFGTDSGNAEAIAEKISKAIGNAEVVDVAKASKEQFNSFTKVILVAPTAGAGDLQTDWEDFLGTLEASDFATKTIGLVGLGDQDTYSETFAEGIFHIYEKAKAGKVVGQTPTDGYHFEASKAVEGGKFVGLVIDEDNQDDLTDERISKWVEQVKGSFA
DSC, transition: 3
  unfolding enthalpy (van 't Hoff): 121 kJ/mol and 209 kJ/mol
Fluorescence, transition: 4
  unfolding enthalpy (van 't Hoff): 184 kJ/mol
